Conditions in all cases: both partners purified
In assay [1] the target is T1, cytochrome P450 3A4 (CYP3A4), human, C-terminally His-tagged, expressed from pB84 (human, UniProt P08684 1-503).
T1 construct: human cytochrome P450 3A4 with its own N-terminal membrane anchor domain; expressed with an OmpA leader that is cleaved off during membrane targeting; source: E. coli K12 JM109, solubilised with CHAPS, purified (Ni-NTA agarose); not shown: His-tag, C-terminal, kept
As to the kind of experiment: absorbance spectroscopy of the co-purified nanodiscs (fit of a convolution spectrum); CPR-CYP3A4-nanodiscs of mixed lipid (ER mimic) after Ni-affinity and gel filtration; spectra of singly loaded nanodiscs as basis spectra. (In gel filtration, larger molecules generally elute earlier.)

Assay [2] deals with T1, cytochrome P450 3A4 (CYP3A4), human, …. In words: absorbance spectroscopy of the co-purified nanodiscs (fit of a convolution spectrum); CPR-CYP3A4-nanodiscs of bovine liver microsomal lipid after Ni-affinity and gel filtration; spectra of singly loaded nanodiscs as basis spectra.
For assay [3] the target is unchanged. In words: absorbance spectroscopy of the co-purified nanodiscs (fit of a convolution spectrum); CPR-CYP3A4-nanodiscs of POPC after Ni-affinity and gel filtration; spectra of singly loaded nanodiscs as basis spectra.

T1 sequence (P08684 whole entry, the tested form may be a part): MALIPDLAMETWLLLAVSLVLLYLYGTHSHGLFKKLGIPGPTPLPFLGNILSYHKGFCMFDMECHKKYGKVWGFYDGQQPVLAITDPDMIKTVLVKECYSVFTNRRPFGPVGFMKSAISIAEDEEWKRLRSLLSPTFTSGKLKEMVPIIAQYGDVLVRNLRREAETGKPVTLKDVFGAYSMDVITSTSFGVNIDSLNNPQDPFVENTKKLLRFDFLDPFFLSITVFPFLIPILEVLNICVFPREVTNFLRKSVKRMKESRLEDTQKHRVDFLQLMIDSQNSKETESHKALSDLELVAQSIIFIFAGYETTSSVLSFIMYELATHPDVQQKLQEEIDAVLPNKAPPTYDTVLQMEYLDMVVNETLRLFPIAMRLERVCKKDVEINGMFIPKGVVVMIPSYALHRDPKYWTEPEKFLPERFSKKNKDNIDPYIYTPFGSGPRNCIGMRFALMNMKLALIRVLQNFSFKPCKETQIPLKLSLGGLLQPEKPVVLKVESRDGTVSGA

B1: NADPH-dependent cytochrome P450 oxidoreductase (CPR), full-length human, expressed from pPORh1 (enzyme)
chain: GIPGSMGDSHVDTSSTVSEAVAEEVSLFSMTDMILFSLIVGLLTYWFLFRKKKEEVPEFTKIQTLTSSVRESSFVEKMKKTGRNIIVFYGSQTGTAEEFANRLSKDAHRYGMRGMSADPEEYDLADLSSLPEIDNALVVFCMATYGEGDPTDNAQDFYDWLQETDVDLSGVKFAVFGLGNKTYEHFNAMGKYVDKRLEQLGAQRIFELGLGDDDGNLEEDFITWREQFWPAVCEHFGVEATGEESSIRQYELVVHTDIDAAKVYMGEMGRLKSYENQKPPFDAKNPFLAAVTTNRKLNQGTERHLMHLELDISDSKIRYESGDHVAVYPANDSALVNQLGKILGADLDVVMSLNNLDEESNKKHPFPCPTSYRTALTYYLDITNPPRTNVLYELAQYASEPSEQELLRKMASSSGEGKELYLSWVVEARRHILAILQDCPSLRPPIDHLCELLPRLQARYYSIASSSKVHPNSVHICAVVVEYETKAGRINKGVATNWLRAKEPAGENGGRALVPMFVRKSQFRLPFKATTPVIMVGPGTGVAPFIGFIQERAWLRQQGKEVGETLLYYGCRRSDEDYLYREELAQFHRDGALTQLNVAFSREQSHKVYVQHLLKQDREHLWKLIEGGAHIYVCGDARNMARDVQNTFYDIVAELGAMEHAQAVDYIKKLMTKGRYSLDVWS
notes: printed in three-letter code as Gly-Iso-Pro-Gly-Ser; human NADPH-dependent cytochrome P450 reductase (CPR), full length with its N-terminal membrane anchor domain; Expressed with an N-terminal OmpA leader for periplasmic membrane targeting; also called cytochrome P450 reductase; full-length CPR; source: E. coli C41(DE3), solubilised from membranes with Triton X-100, purified (2',5'-ADP Sepharose …)
For B1, the “stoichiometry N” value in assay [1] is 1.1 CPR : CYP (molar ratio); in assay [2], 1 CPR : CYP (molar ratio); in assay [3], 0.8 CPR : CYP (molar ratio).

Source of the values: article PMC5575521, “Liver microsomal lipid enhances the activity and redox coupling of colocalized cytochrome P450 reductase‐cytochrome P450 3A4 in nanodiscs” (The Febs Journal, 2017).
